From the supplement of paper PMC9112550, “Optimization of the antimicrobial peptide Bac7 by deep mutational scanning” (BMC Biology, 2022)

test system: Escherichia coli TOP10; assay: shrunken log2 fold change of peptide-encoding DNA abundance (4.5 h post-induction vs induction); higher = less antimicrobial activity (less host growth inhibition); conditions: time post-induction: 4.5 h; library: site-saturation at positions 5, 18, 19, 20
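Also: peptides expressed intracellularly from a pBAD plasmid library in pooled LB shake-flask culture, induced with 0.3% L-arabinose, DNA abundance read by NGS, three biological replicates, DESeq2 with apeglm shrinkage.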

Row | Sequence | shrunken log2 fold change
1 | RRIRHRPPRLPRPRPRPTQSPRP | 0.113
2 | RRIRPRPPRLPRPRPRPDKMPRP | 0.0748
3 | RRIRMRPPRLPRPRPRPEWRPRP | 0.829
4 | RRIRWRPPRLPRPRPRPDAPPRP | 0.558
5 | RRIRPRPPRLPRPRPRPMVGPRP | 0.265
6 | RRIRCRPPRLPRPRPRPLESPRP | 0.0242
7 | RRIRSRPPRLPRPRPRPYTWPRP | -0.989
8 | RRIRWRPPRLPRPRPRPKCTPRP | 1.21
9 | RRIRHRPPRLPRPRPRPGPWPRP | 0.166
10 | RRIRERPPRLPRPRPRPAKHPRP | -0.107
11 | RRIRPRPPRLPRPRPRPNDKPRP | -0.52
12 | RRIRLRPPRLPRPRPRPILLPRP | -0.235
13 | RRIRLRPPRLPRPRPRPFMPPRP | -0.195
14 | RRIRDRPPRLPRPRPRPMFWPRP | 0.0751
15 | RRIRARPPRLPRPRPRPRVVPRP | 0.624
16 | RRIRERPPRLPRPRPRPRTMPRP | -0.135
17 | RRIRNRPPRLPRPRPRPRPTPRP | 0.658
18 | RRIRRRPPRLPRPRPRPGIIPRP | 0.028
19 | RRIRKRPPRLPRPRPRPDENPRP | 1.42
20 | RRIRGRPPRLPRPRPRPLGWPRP | 1.27
21 | RRIRCRPPRLPRPRPRPLTIPRP | -0.66
22 | RRIRVRPPRLPRPRPRPLDTPRP | -0.257
23 | RRIRLRPPRLPRPRPRPMDYPRP | -0.202
24 | RRIRARPPRLPRPRPRPVAIPRP | 0.111
25 | RRIRTRPPRLPRPRPRPKEDPRP | 0.262

Row | Sequence | shrunken log2 fold change
26 | RRIRLRPPRLPRPRPRPRYRPRP | -0.374
27 | RRIRERPPRLPRPRPRPMKRPRP | -0.312
28 | RRIRIRPPRLPRPRPRPYMNPRP | -0.712
29 | RRIRTRPPRLPRPRPRPYPFPRP | -0.0603
30 | RRIRARPPRLPRPRPRPTSAPRP | 0.684
31 | RRIRERPPRLPRPRPRPNVAPRP | -0.186
32 | RRIRRRPPRLPRPRPRPFCNPRP | -0.259
33 | RRIRQRPPRLPRPRPRPMNRPRP | -0.275
34 | RRIRCRPPRLPRPRPRPYDWPRP | -0.204
35 | RRIRERPPRLPRPRPRPRTTPRP | 0.00749
36 | RRIRWRPPRLPRPRPRPWYTPRP | -0.0512
37 | RRIRRRPPRLPRPRPRPALEPRP | 0.264
38 | RRIRHRPPRLPRPRPRPQSWPRP | 0.0657
39 | RRIRNRPPRLPRPRPRPQWLPRP | -0.317
40 | RRIRWRPPRLPRPRPRPCQLPRP | -0.0812
41 | RRIRDRPPRLPRPRPRPSRMPRP | -0.0207
42 | RRIRQRPPRLPRPRPRPAQEPRP | 0.852
43 | RRIRMRPPRLPRPRPRPEKPPRP | 1.34
44 | RRIRRRPPRLPRPRPRPKECPRP | 0.0842
45 | RRIRIRPPRLPRPRPRPVPLPRP | -0.442
46 | RRIRARPPRLPRPRPRPCERPRP | -0.00198
47 | RRIRCRPPRLPRPRPRPAGCPRP | 0.262
48 | RRIRSRPPRLPRPRPRPDMFPRP | -0.212
49 | RRIRQRPPRLPRPRPRPQMFPRP | 0.00489
50 | RRIRPRPPRLPRPRPRPWLTPRP | -0.123

Row | Sequence | shrunken log2 fold change
51 | RRIRRRPPRLPRPRPRPELCPRP | 0.101
52 | RRIRMRPPRLPRPRPRPISSPRP | -0.0416
53 | RRIRYRPPRLPRPRPRPDQTPRP | 0.00902
54 | RRIRTRPPRLPRPRPRPGQGPRP | 0.0576
55 | RRIRIRPPRLPRPRPRPIKHPRP | -0.571
56 | RRIRARPPRLPRPRPRPSSQPRP | 0.144
57 | RRIRLRPPRLPRPRPRPRNLPRP | -0.0507
58 | RRIRPRPPRLPRPRPRPCMFPRP | -0.577
59 | RRIRCRPPRLPRPRPRPDPNPRP | -0.00486
60 | RRIRFRPPRLPRPRPRPVARPRP | 0.0942
61 | RRIRRRPPRLPRPRPRPGRMPRP | 0.41
62 | RRIRERPPRLPRPRPRPAIHPRP | 0.125
63 | RRIRNRPPRLPRPRPRPDDAPRP | 0.147
64 | RRIRARPPRLPRPRPRPLGVPRP | 1.44
65 | RRIRERPPRLPRPRPRPPHLPRP | -0.0668
66 | RRIRSRPPRLPRPRPRPKGAPRP | 0.38
67 | RRIRRRPPRLPRPRPRPTDGPRP | 0.0329
68 | RRIRIRPPRLPRPRPRPKDKPRP | -0.747
69 | RRIRSRPPRLPRPRPRPCCDPRP | -0.284
70 | RRIRWRPPRLPRPRPRPLIIPRP | -0.269
71 | RRIRRRPPRLPRPRPRPYYSPRP | -0.532
72 | RRIRLRPPRLPRPRPRPWVTPRP | -0.145
73 | RRIRCRPPRLPRPRPRPPGNPRP | 0.0392
74 | RRIRIRPPRLPRPRPRPYRIPRP | -0.485
75 | RRIRIRPPRLPRPRPRPVPEPRP | -0.138

Row | Sequence | shrunken log2 fold change
76 | RRIRDRPPRLPRPRPRPEHGPRP | 0.0582
77 | RRIRKRPPRLPRPRPRPLWVPRP | 0.0688
78 | RRIRCRPPRLPRPRPRPMAAPRP | 0.476
79 | RRIRTRPPRLPRPRPRPVAYPRP | -0.502
80 | RRIRERPPRLPRPRPRPKNPPRP | -0.503
81 | RRIRCRPPRLPRPRPRPRKRPRP | 0.456
82 | RRIRCRPPRLPRPRPRPQHAPRP | -0.0229
83 | RRIRNRPPRLPRPRPRPTYVPRP | -0.143
84 | RRIRERPPRLPRPRPRPFLYPRP | -0.761
85 | RRIRMRPPRLPRPRPRPMKLPRP | -0.13
86 | RRIRYRPPRLPRPRPRPKVKPRP | -0.233
87 | RRIRSRPPRLPRPRPRPDQNPRP | -0.182
88 | RRIRSRPPRLPRPRPRPIEKPRP | -0.0173
89 | RRIRHRPPRLPRPRPRPHWGPRP | -0.123
90 | RRIRERPPRLPRPRPRPLRFPRP | 0.493
91 | RRIRLRPPRLPRPRPRPIKMPRP | -0.347
92 | RRIRSRPPRLPRPRPRPLHPPRP | 0.578
93 | RRIRFRPPRLPRPRPRPHNCPRP | -0.3
94 | RRIRTRPPRLPRPRPRPTYLPRP | -0.827
95 | RRIRWRPPRLPRPRPRPLYMPRP | -0.684
96 | RRIRARPPRLPRPRPRPTAWPRP | 0.863
97 | RRIRQRPPRLPRPRPRPCARPRP | -0.0014
98 | RRIRVRPPRLPRPRPRPWCDPRP | -0.394
99 | RRIRNRPPRLPRPRPRPYQKPRP | -0.0633
100 | RRIRDRPPRLPRPRPRPNNGPRP | -0.0483

Row | Sequence | shrunken log2 fold change
101 | RRIRVRPPRLPRPRPRPWIKPRP | 0.0141
102 | RRIRIRPPRLPRPRPRPGISPRP | -0.27
103 | RRIRPRPPRLPRPRPRPVMKPRP | -0.00931
104 | RRIRCRPPRLPRPRPRPGLDPRP | 0.191
105 | RRIRCRPPRLPRPRPRPPRDPRP | 0.84
106 | RRIRVRPPRLPRPRPRPIMGPRP | 0.0179
107 | RRIRCRPPRLPRPRPRPMGGPRP | 0.145
108 | RRIRFRPPRLPRPRPRPEEQPRP | 0.162
109 | RRIRWRPPRLPRPRPRPYHAPRP | -0.295
110 | RRIRKRPPRLPRPRPRPCNNPRP | -0.474
111 | RRIRRRPPRLPRPRPRPNWCPRP | 0.177
112 | RRIRHRPPRLPRPRPRPEFPPRP | 0.0962
113 | RRIRFRPPRLPRPRPRPPGKPRP | 0.2
114 | RRIRPRPPRLPRPRPRPCRHPRP | -0.0363
115 | RRIRIRPPRLPRPRPRPLFKPRP | -0.773
116 | RRIRYRPPRLPRPRPRPNNLPRP | -0.582
117 | RRIRGRPPRLPRPRPRPKLCPRP | 0.75
118 | RRIRMRPPRLPRPRPRPYHTPRP | -1.11
119 | RRIRFRPPRLPRPRPRPWWQPRP | -0.0583
120 | RRIRDRPPRLPRPRPRPGAYPRP | 0.136
121 | RRIRRRPPRLPRPRPRPHALPRP | 0.0116
122 | RRIRDRPPRLPRPRPRPWLMPRP | -0.1
123 | RRIRSRPPRLPRPRPRPYWPPRP | -0.642
124 | RRIRMRPPRLPRPRPRPIYCPRP | -0.163
125 | RRIRRRPPRLPRPRPRPGISPRP | 0.0929

Row | Sequence | shrunken log2 fold change
126 | RRIRRRPPRLPRPRPRPSKKPRP | 0.144
127 | RRIRDRPPRLPRPRPRPKKWPRP | -0.0255
128 | RRIRKRPPRLPRPRPRPGKDPRP | 0.173
129 | RRIRLRPPRLPRPRPRPWRAPRP | 0.392
130 | RRIRDRPPRLPRPRPRPLCVPRP | 0.248
131 | RRIRDRPPRLPRPRPRPECVPRP | 1.3
132 | RRIRFRPPRLPRPRPRPMDIPRP | -0.0635
133 | RRIRKRPPRLPRPRPRPLVFPRP | -0.0076
134 | RRIRFRPPRLPRPRPRPWRCPRP | 0.174
135 | RRIRGRPPRLPRPRPRPLWGPRP | 0.583
136 | RRIRYRPPRLPRPRPRPLPCPRP | -0.413
137 | RRIRQRPPRLPRPRPRPHEYPRP | 0.0128
138 | RRIRRRPPRLPRPRPRPAQHPRP | 0.369
139 | RRIRVRPPRLPRPRPRPLYSPRP | -0.343
140 | RRIRNRPPRLPRPRPRPHPAPRP | 0.116
141 | RRIRFRPPRLPRPRPRPPVVPRP | 0.159
142 | RRIRWRPPRLPRPRPRPHGLPRP | 0.0735
143 | RRIRSRPPRLPRPRPRPRICPRP | -0.191
144 | RRIRQRPPRLPRPRPRPMIIPRP | 0.0698
145 | RRIRRRPPRLPRPRPRPHAVPRP | 0.251
146 | RRIRQRPPRLPRPRPRPWPPPRP | 0.16
147 | RRIRDRPPRLPRPRPRPCMWPRP | 0.569
148 | RRIRTRPPRLPRPRPRPAVIPRP | 0.0431
149 | RRIRFRPPRLPRPRPRPPHCPRP | 0.362
150 | RRIRKRPPRLPRPRPRPDGQPRP | 0.0566
